In article doi:10.1101/2023.01.31.526478 one finds FRET efficiency data, which are given here for one substance.

For the experiment, the target named is SNAP-SPIN1 (human) (UniProt Q9Y657). In words: FRET or BRET. (In general: BRET reads energy transfer from a luciferase to a nearby fluorophore.)
Chain of UniProt Q9Y657 (Q9Y657 whole entry): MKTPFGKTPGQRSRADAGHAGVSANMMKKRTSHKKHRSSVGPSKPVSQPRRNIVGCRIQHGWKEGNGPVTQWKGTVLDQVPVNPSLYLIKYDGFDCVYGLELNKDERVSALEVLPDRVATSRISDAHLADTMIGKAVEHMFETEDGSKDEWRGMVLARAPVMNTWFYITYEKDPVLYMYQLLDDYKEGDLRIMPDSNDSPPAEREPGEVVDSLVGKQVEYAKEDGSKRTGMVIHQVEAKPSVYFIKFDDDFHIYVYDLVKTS

Substance “Halo-WDR76 (from UniProt Q9H967 1-626) (natural protein)” displayed an FRET efficiency of 2%.
